The target in the experiment is human STING C-terminal domain (CTD) containing residues 155 to 341 (human) (UniProt Q86WV6). Briefly: SEC.

This passage reports stoichiometry N results from paper PMC3392545.

What is called stoichiometry N is a count of units in the complex or per binding partner. The substance “human STING C-terminal domain (CTD) containing residues 155 to 341 (from UniProt Q86WV6 155-341) (domain or fragment)” came in with a stoichiometry N of 2.
